T1: HxuA (cysteine-less variant, Cys855 and Cys861 replaced by serines; referred to as HxuA throughout) (Haemophilus influenzae, UniProt P44602 22-905, Cys855 replaced by serine | Cys861 replaced by serine)
T1 construct: also called WT; HxuAWT; source: E. coli BL21 with a pBAD24 derivative harbouring the hxuCBA operon; purified from the culture supernatant (ammonium sulfate, SEC, monoQ)
T1 sequence: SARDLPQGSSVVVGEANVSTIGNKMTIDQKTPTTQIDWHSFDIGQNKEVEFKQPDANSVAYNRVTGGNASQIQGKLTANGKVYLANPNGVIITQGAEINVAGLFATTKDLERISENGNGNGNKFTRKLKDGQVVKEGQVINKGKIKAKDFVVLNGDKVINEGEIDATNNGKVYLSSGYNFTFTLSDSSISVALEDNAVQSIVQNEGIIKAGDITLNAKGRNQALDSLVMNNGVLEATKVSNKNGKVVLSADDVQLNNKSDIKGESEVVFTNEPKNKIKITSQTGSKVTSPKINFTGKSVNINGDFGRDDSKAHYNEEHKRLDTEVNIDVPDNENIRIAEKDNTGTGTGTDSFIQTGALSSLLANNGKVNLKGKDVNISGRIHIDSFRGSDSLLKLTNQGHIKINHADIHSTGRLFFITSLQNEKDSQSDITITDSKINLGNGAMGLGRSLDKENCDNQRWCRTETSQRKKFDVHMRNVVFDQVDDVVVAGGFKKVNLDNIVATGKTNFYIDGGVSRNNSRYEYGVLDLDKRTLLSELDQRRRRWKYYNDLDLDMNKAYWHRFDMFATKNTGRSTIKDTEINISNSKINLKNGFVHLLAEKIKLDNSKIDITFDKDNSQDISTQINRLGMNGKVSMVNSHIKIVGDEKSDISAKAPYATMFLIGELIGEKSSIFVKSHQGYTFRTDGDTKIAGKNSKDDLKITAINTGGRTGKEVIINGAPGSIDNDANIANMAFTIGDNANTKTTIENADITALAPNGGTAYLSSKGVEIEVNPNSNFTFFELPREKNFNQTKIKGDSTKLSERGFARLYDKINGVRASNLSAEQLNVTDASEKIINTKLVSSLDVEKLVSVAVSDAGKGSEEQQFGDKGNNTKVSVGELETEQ

T2: HxuA^DEL (M loop deletion), cysteine-less (dm) variant (Haemophilus influenzae, UniProt P44602 22-905, additional Pro codon replacing the initial 712-728 sequence | Cys855 replaced …)
T2 construct: source: E. coli BL21 with a pBAD24 derivative harbouring the hxuCBA operon; purified from the culture supernatant (same protocol as HxuA)
T2 sequence: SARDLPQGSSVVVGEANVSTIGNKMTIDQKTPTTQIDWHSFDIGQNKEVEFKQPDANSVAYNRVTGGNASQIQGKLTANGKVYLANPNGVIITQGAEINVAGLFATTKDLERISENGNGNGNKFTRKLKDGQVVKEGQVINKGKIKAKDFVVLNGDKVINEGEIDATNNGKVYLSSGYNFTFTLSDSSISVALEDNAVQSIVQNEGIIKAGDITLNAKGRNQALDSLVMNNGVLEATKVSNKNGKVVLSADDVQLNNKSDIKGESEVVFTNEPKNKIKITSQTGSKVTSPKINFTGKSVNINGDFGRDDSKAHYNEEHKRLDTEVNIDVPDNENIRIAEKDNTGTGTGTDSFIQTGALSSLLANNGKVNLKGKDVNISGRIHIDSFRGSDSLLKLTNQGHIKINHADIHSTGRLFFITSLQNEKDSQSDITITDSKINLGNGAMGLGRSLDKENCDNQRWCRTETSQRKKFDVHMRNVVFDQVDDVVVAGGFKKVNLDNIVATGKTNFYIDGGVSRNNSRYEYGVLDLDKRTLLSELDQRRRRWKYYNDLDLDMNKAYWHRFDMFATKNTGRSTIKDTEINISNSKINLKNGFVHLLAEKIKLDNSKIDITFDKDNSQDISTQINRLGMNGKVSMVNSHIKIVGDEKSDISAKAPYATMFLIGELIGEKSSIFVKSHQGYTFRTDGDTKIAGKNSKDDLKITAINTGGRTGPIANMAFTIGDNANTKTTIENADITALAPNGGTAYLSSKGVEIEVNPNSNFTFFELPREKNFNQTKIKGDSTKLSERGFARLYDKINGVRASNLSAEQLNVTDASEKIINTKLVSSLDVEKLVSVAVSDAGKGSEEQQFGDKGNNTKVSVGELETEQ

T3: HxuA^Asp726Ala, cysteine-less (dm) variant (Haemophilus influenzae, UniProt P44602 22-905, Asp726Ala | Cys855 replaced by serine | Cys861 replaced by serine)
T3 construct: source: E. coli BL21 with a pBAD24 derivative harbouring the hxuCBA operon; purified from the culture supernatant (same protocol as HxuA)
T3 sequence: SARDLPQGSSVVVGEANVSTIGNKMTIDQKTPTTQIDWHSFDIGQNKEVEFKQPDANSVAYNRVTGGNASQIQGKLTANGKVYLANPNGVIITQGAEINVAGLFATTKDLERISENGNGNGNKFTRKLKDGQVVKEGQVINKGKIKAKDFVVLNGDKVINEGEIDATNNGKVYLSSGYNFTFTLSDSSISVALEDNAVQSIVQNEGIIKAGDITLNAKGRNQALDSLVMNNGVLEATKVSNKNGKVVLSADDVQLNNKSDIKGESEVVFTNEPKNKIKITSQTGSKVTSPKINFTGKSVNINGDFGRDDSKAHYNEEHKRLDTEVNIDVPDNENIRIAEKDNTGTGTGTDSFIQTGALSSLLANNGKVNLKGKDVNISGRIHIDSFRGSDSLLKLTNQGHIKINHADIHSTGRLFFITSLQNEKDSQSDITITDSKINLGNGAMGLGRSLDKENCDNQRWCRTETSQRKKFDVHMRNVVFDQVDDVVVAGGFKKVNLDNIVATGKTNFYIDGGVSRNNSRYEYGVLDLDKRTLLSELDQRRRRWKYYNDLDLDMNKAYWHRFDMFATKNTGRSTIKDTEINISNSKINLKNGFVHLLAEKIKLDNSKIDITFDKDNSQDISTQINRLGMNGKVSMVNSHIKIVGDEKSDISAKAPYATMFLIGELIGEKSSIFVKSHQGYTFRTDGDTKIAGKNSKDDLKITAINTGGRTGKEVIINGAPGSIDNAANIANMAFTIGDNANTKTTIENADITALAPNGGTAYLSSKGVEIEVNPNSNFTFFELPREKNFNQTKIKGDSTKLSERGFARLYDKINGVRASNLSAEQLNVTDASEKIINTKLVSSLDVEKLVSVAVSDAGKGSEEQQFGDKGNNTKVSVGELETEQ

T4: HxuA, cysteine-less variant (cysteines 855 and 861 replaced by serines; referred to as HxuA throughout) (Haemophilus influenzae, UniProt P44602 22-905, cysteine at position 855 replaced by serine | cysteine at position 861 replaced …)
T4 construct: HxuA, haem-haemopexin utilisation protein A (TpsA cargo protein) of Haemophilus influenzae, called full-length, 884 residues, Ser1 to Gln884; Measured mass 96,467.6094 (theoretical 96,469.6926); also called HxuAdm; dm variant; source: E. coli BL21, pBAD24 derivative with the hxuCBA operon; purified from the culture supernatant (ammonium sulfate, SEC, monoQ)
T4 sequence: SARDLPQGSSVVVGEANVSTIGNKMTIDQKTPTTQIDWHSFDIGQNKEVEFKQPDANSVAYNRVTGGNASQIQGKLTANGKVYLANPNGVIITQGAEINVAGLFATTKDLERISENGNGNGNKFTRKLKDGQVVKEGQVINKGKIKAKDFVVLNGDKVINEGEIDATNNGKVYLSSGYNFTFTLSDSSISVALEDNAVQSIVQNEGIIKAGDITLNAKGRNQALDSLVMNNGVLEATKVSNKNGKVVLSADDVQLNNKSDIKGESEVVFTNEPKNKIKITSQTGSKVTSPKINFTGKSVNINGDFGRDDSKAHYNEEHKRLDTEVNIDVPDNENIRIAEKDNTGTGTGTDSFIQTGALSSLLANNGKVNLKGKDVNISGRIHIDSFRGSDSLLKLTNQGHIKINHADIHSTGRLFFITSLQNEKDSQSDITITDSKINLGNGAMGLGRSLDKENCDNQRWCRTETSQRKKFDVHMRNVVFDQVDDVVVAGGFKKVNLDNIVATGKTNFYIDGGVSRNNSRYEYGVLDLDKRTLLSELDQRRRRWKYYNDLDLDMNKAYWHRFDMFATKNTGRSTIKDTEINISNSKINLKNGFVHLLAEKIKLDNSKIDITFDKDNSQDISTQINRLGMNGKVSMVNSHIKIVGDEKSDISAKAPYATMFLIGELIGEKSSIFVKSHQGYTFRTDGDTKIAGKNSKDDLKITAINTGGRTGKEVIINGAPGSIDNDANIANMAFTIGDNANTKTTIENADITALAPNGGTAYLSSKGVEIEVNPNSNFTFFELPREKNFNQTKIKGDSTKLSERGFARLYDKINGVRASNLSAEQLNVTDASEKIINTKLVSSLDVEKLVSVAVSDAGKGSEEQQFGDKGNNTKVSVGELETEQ


Experiments:
Settings in all cases: both partners purified
[1] = target: T1, HxuA (cysteine-less variant, Cys855 and …); assay: ITC; haemopexin or its fragment (~100 uM) in the syringe, HxuA or mutant (~10 uM) in the cell; 25 °C; 20 mM Na-phosphate pH 7.0; single-site model; apparent Ka; mean of one to three experiments
[2] = target: T2, HxuA^DEL (M loop deletion), …; assay: as above
[3] = target: T3, HxuA^Asp726Ala, cysteine-less (dm) …; assay: as above
[4] = target: T4, HxuA, cysteine-less variant (cysteines …); assay: ITC; haemopexin or its fragments (~100 μM) in the syringe, HxuA (~10 μM) in the cell; 20 mM Na-phosphate pH 7.0, 25 °C; single-site model; apparent Ka

Binder	Ka [1] [M⁻¹]	stoichiometry N [1]	Ka [2] [M⁻¹]	stoichiometry N [2]	Ka [3] [M⁻¹]	stoichiometry N [3]	dH [4] [kcal/mol]
rabbit haemopexin (haem-free) (natural protein, Glycoprotein from serum; also called Hpx; hemopexin; source: purified from rabbit serum (Biosera)) VPLTSAHGNVTEGESGTKPEADVIEQCSDGWSFDATTLDDNGTMLFFKDEFVWKSHRGIRELISERWKNFIGPVDAAFRHGHTSVYLIKGDKVWVYTSEKNEKVYPKSLQDEFPGIPFPLDAAVECHRGECQDEGILFFQGNRKWFWDLTTGTKKERSWPAVGNCTSALRWLGRYYCFQGNQFLRFNPVSGEVPPGYPLDVRDYFLSCPGRGHRSSHRNSTQHGHESTRCDPDLVLSAMVSDNHGATYVFSGSHYWRLDTNRDGWHSWPIAHQWPQGPSTVDAAFSWEDKLYLIQDTKVYVFLTKGGYTLVNGYPKRLEKELGSPPVISLEAVDAAFVCPGSSRLHIMAGRRLWWLDLKSGAQATWTELPWPHEKVDGALCMEKPLGPNSCSTSGPNLYLIHGPNLYCYRHVDKLNAAKNLPQPQRVSRLLGCTH	> 1e+09	0.8	> 1e+09	1.07	> 1e+09	0.68	–
rabbit haem-haemopexin (natural protein, haem bound, Same chain as Dm4, with haem; also called He-Hpx; HeHpx; source: purified from rabbit serum (Biosera), haem-loaded) VPLTSAHGNVTEGESGTKPEADVIEQCSDGWSFDATTLDDNGTMLFFKDEFVWKSHRGIRELISERWKNFIGPVDAAFRHGHTSVYLIKGDKVWVYTSEKNEKVYPKSLQDEFPGIPFPLDAAVECHRGECQDEGILFFQGNRKWFWDLTTGTKKERSWPAVGNCTSALRWLGRYYCFQGNQFLRFNPVSGEVPPGYPLDVRDYFLSCPGRGHRSSHRNSTQHGHESTRCDPDLVLSAMVSDNHGATYVFSGSHYWRLDTNRDGWHSWPIAHQWPQGPSTVDAAFSWEDKLYLIQDTKVYVFLTKGGYTLVNGYPKRLEKELGSPPVISLEAVDAAFVCPGSSRLHIMAGRRLWWLDLKSGAQATWTELPWPHEKVDGALCMEKPLGPNSCSTSGPNLYLIHGPNLYCYRHVDKLNAAKNLPQPQRVSRLLGCTH	–	0.96	–	0.89	–	1.06	–
rabbit haemopexin (haem-free) (natural protein, haemopexin, rabbit, serum glycoprotein, called full-length; two MMP domains (residues 1-208 and 228-435) joined by a linker; Glycoprotein from serum; also called Hpx; full-length haemopexin; source: purified from rabbit serum (Biosera): perchloric acid, PEG 3400, S-sepharose, mono Q, SEC) VPLTSAHGNVTEGESGTKPEADVIEQCSDGWSFDATTLDDNGTMLFFKDEFVWKSHRGIRELISERWKNFIGPVDAAFRHGHTSVYLIKGDKVWVYTSEKNEKVYPKSLQDEFPGIPFPLDAAVECHRGECQDEGILFFQGNRKWFWDLTTGTKKERSWPAVGNCTSALRWLGRYYCFQGNQFLRFNPVSGEVPPGYPLDVRDYFLSCPGRGHRSSHRNSTQHGHESTRCDPDLVLSAMVSDNHGATYVFSGSHYWRLDTNRDGWHSWPIAHQWPQGPSTVDAAFSWEDKLYLIQDTKVYVFLTKGGYTLVNGYPKRLEKELGSPPVISLEAVDAAFVCPGSSRLHIMAGRRLWWLDLKSGAQATWTELPWPHEKVDGALCMEKPLGPNSCSTSGPNLYLIHGPNLYCYRHVDKLNAAKNLPQPQRVSRLLGCTH	–	–	–	–	–	–	-52.7

From PMC4873976, “Structural basis for haem piracy from host haemopexin by Haemophilus influenzae” (Nature Communications, 2016)
